Laboratory results as given in PMC4798592, “A Surfactant-Induced Functional Modulation of a Global Virulence Regulator from Staphylococcus aureus” (PLoS ONE, 2016).

Molecular target: the molecule itself
Test: cross-linking; glutaraldehyde-mediated cross-linking of rSarA (10 uM) in buffer B [20 mM phosphate buffer (pH 8.0), 100 mM NaCl, 5% glycerol] or buffer C (buffer B with 0.7 mM TX-100); analysed by SDS-13.5% PAGE

B1: recombinant S. aureus SarA (rSarA) (natural protein)
chain: MAITKINDCFELLSMVTYADKLKSLIKKEFSISFEEFAVLTYISENKEKEYYLKDIINHLNYKQPQVVKAVKILSQEDYFDKKRNEHDERTVLILVNAQQRKKIESLLSRVNKRITEANNEIEL
notes: source: purified as described [8]
Question: For B1, which “stoichiometry N” value is on record?
Answer: 2
